Assay results from the supplement of paper PMC11502859.
“And” between values parts separate entries of the source, which are not always exact repeats. Equal values may be shown once.

Test system: HEK293T
Assay: median enrichment of reporter reads in eGFP-reduced (low/intermediate) vs eGFP-high sorted cells (eGFP-extension fusion abundance) (ratio); higher = stronger loss of eGFP-fusion protein abundance (more destabilising extension)
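Also: lentiviral eGFP-IRES-mCherry reporter pool sorted by FACS 96 h post-transduction, gated on mCherry-high cells, Illumina read counts normalized per million, median across four biological replicates.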

Substance | median enrichment
CFSVNLSLLVERSGACPSSQTSDL [LRRC46] | 5.72
LECRSAGRREE [CNPY1] | 12.4
CGSCGCPCCVALYDCC [NDUFB10] | 4.77
SGGVGPGRAGVCWHRQPPLWALGGPLKGSPTRGPDESFLSGVGSQRGSPPAAWGRAWPGRVIQRVCQPLTGSPSVAATRSTEL [FAM53B] | 5.41
WAPGTAPHCQLPLLGGPGRRVPPSPCQGPGDPLPGCLRLLLRRGNAKKEKEKPRARPLPPAVHCAASSVPGLTVPLSSAPARQ [NRXN2] | 6.68
YGFLGFPSWACLLKA [CSF3R] | 5.35
YRLLSKHRFSR [Degron FEM1A/C] | 5.74
LVLIPTFPCDLGCRCSCCKMEANLTGVL [ADD2] | 2.88
YTPNNLLPPLAPVAYISS [TMEM169] | 11.3
WDSSQFERQ [MYCBP] | 0.249
YRGRPGTGGMSCRPQPGRTPHSLSRQRGQNRPAQPWSPLHSPRPLAPALPTSSAWSEGAARAQQRRGGRLWPPTSRPVPAGTA [ARHGAP39] | 7.75
HHH [His03] | 0.477
GTHNLHLSGYYYRFLHAQSRRIWTQMVTITSWPTNKKVLTML [ZNF717] | 7.8
KISVETYTVSSQLLMVLMSLDLDTGLVPSLVSKCLILRVK [VHL] | 5.01
SRETVGG [JUN] | 3.4
YNQGSVTPCHAPTVEIPPLLKFFMVVSLPGSLMLS [KCNS1] | 11.7
QESKSTLPSHHHGPTGYPEQLHTLLEVSRSLPA [ADAMTSL1] | 2.98
WVLSRAVEVPVIPAGAAATQSGRQGGEHLSATETNHSLFAQHASSSVLHSSPGSLSGSSTESFCSLKCWDA [CGNL1] | 8.11
LKQPV [RIC3] | 1.01
QTLCALCVRPVPAS [USP10] | 7.74
SDGSAGTHCPPWLPLGGNPNRAPGGNPAPNPPQQGCTVSPLED [ATP13A1] | 0.555
RGHRSEMRGLECGWAPGAMGGCGAGEIKSELLLPGVPTSSSGQSVHSQPDR [BCL2] | 1.46
LVW [ZNF160] | 1.8
YGGPVGEPGDSRV [CHRND] | 0.405

Substance | median enrichment
LKNKSPLQNTPPSHSAPQLPTTARLSSFASVASPALHALAGTVAAAFSCSVMPSSCLKQKKIMHCVF [STXBP1] | 6.42
NGPPLPPSPDAEMVMGSWRVGSEMKGTPQWAAGPIFPKPCHYLCEGGQVAEGSGCRLLYPLCLKHPPHRALVFTRFVLDSLNG [SLC13A5] | 4.2
GMSFLDLH [LSM5] | 0.489
YPAALPGGGGIKRPESPGCPRRDANHPVLSTGPSSLFHPHFC [E2F7] | 6.7
WYTF [PNISR] | 2.74
WPLQQNSFVLCGAMPSLTPNRVSVILRTFYPQHL [CPNE3] | 16.4
LKSP [SPATA5L1] | 0.47
DNPHPHCFWGSLSHLSHPVSCLCLSWCLSGLLSVSFCLSVSLPTPAPSFQCSGWLSLPFSPSLSALGSVSTAGPKVKVLPLPE [CCDC97] | 5.65
SVGEWAGMCILLPNSSIQDCAHIRSTRTSSHQHKNINRNAALSTV [WFDC10A] | 5.12
EEEEEE [Glu06] | 1.59
GAHPKYACHLRPQAGHTGQPACRQDLPASSSQYSLQRLKCEAPAPPSALQPTGPGRTCPLSVSPSRVPRWRPLSTG [PAK6] | 3.28
YYYY [Tyr04] | 4.17
GPPSTSQQQD [DENND5A] | 0.577
EKTVCKRSGVQEITSFDRSMYRKFKFCLRLHKLGAFLRCFSCSNLFVS [SRSF3] | 10
YEERDYLHIKNI [SLC35B1] | 0.713
SWRRPMCIFF [FRAS1] | 9.68
LGSWRHWRGQEG [Degron KLHDC3] | 8.96
LPFSGLQPPPGWKPWGPSGLGGAASRERAPFSGLPPQHAAS [CDR2L] | 5.38
QESSSRGTEDWGQEESGTQPSCPLTPGRPSPHPRVPQSYPLSACVARPDKHLQMAAAPTWDLPRRLEQKGLSLGWCFSSRVLG [TMEM141] | 3.62
WGFRSAT [KIF15] | 1.06
WADPGYVPYPRGLSIDRDYIITWLEVKGSIQVLHLVLPCLLSDHSDGLMWLLMWNCRRVQRRVCNKAIGKHTGAFPSPSGPRP [HS3ST3B1] | 4.31
QICIIQAYLVKQTHIMGLGNIYLSKFAITDLGFFPFFEGKFNYIALLFFPLRDSLLGKCFLRTKI [CHMP5] | 4.31
LRPGHPDVLLKGAPRAGRGL [CBLC] | 1.91
LFD [RBM26] | 1.04

Substance | median enrichment
WVDGRNIFINQIESIYKNGSRILPQFFCQKVCIYVCIYIYLYIYMTDVF [GCC2] | 11.6
LKPERIVK [OR2A25] | 0.737
WKRD [RER1] | 0.349
LEKAIWDLITLNRHANTVCVRALCIQ [PCDH9] | 9.37
WNQS [CFHR1] | 0.596
QKCGKAFTKSSYCVQHLKFNTEQMQYKCNDSGRTFIILEGL [ZNF736] | 4.28
LECSPFPCPGWQGRGRVKGMCCNTEDRKKKPLDTARDGG [ORMDL3] | 48.4
WWF [LRRCC1] | 1.79
WFIFKGLCVTLTFPVVTCDCFVFVEEYCFYFEKRVFFLSMGLQGWCTTGPSMYSCIDFFT [CD109] | 0.738
CGA [FOSL1] | 0.817
WAAAARPSGTPASPGGALGQVPSGRTTPGPQGPRPAATLVVAASRSAFGRPLGVAGAARRVQVEVPVPGPQRA [B3GALT6] | 8.24
LLRPGALGARP [APOBR] | 9.86
YNIYSYDKDT [HCRTR2] | 5.01
YIMYYPDLVGKVLS [OPRM1] | 11.7
LLGGPGRRVPPSPCQGPGDPLPGCLRLLLRRGNAKKEKEKPRARPLPPAVHCAASSVPGLTVPLSSAPARQGTCSQPWVDLFF [NRXN2] | 6.99
LLECEISVGQTTRVCVCVLMESSLVVSSSFFLVTVLLNLIK [PET117] | 9.64
SQKHVHFGKQACILPVQYLHSTDGTVWRSTFSYFCESIHVGPVSRICTFVPSTVTANLSV [ARHGEF3] | 10.6
CGIII [SRGAP2] | 1.59
RDSSACPPWGPCCRPGGQSRWERHSQGQGKEGTHTHTHTHTHTHTYILLSLPKPIRQVNGQCLLGPWTHFLLGEAAS [GLP1R] | 3.35
SSSSSSSSS [Ser09] | 0.295
WPYWLTPENGLLLDGHGRINFSKMFWVGVE [ACTL8] | 1.37
WARTSPGTAGGPPPPPSHSVTPGPSGAGWRPRSPLLRSPRS [NPB] | 3.31
VVVVVVVVV [Val09] | 8.21
YKCEECGKAFKWSSHLTIH [ZNF93] | 6.32

Substance | median enrichment
DQPHSAQEAASGVGAQRGTAASSTAGCGAAGPGPSAWAAEYIFYLSETSIFLGSNPTCHHVDISSYLTMLSLLGAVLVGPGPC [BAP1] | 4.59
RVEPTSLPSQQARN [TMEM143] | 0.919
LTAPPPPLSPGPGG [VMO1] | 8.99
AGRAPPCMMGKAILPLPPPCFCCLFGEGGGEVGAAAPHPSSLLICTHWPLQTRTSGASPSPPPPCLAAGVAMMGWSSLGQGVL [SCN1B] | 3.87
RQGRLRGQAGGQQLQEGSDNSPPAWAHLLLLLLLGSAPQTRLWPPSQCPVTSPE [CRACR2B] | 9.74
WLHNPVYAFCTKKK [ZSCAN5A] | 8.24
RVT [OR2M3] | 0.571
LSDHPAFPN [TMBIM6] | 0.54
EFILMKENVTKEMHEM [MYH4] | 2.79
YDVMLAGSPPLDPDSYG [SH3GL2] | 0.593
LFDDRDLH [VAMP4] | 0.625
LLAG [QKI] | 4.55
YTTMYFNKDHQC [LRP2BP] | 1.43 and 3.14
HHHHHHHHH [His09] | 0.435
SGSCCVPTETTIWGLLGNAVNAEGSDVWVL [PATZ1] | 10.9
LAAHPASSHVVWEQRDSHLRGGV [RASAL3] | 2.07
EPKEVPGTVSDLERSQKENNIIK [CELA2A] | 0
KQEWQSKLKL [UHRF1BP1L] | 0.342
CELLPCPSFPPCTT [FEZF2] | 0.681
YKLLKRFICVLLTRFFLFVACFGN [SKIL] | 9.42
YLDQSKCGLNLLVDQC [SLC25A3] | 13.3
CGRCTRQEEGDWGPWPGTVLLRGRRRLQQSHGSPRGEGCLSRFLRPRRSDFWARGHARAVQSWPGPPVGLLCSLPSLPPDAGP [FRMD8] | 5.53
LPR [ATXN2L] | 0.876
WWWWWWWW [Trp08] | 4.57

Substance | median enrichment
RAHELRL [TNFAIP8] | 0.408
LVRGRGGAGTYLPESWRQNEALSIPGILLLLRADARPRASRDGVGEVLPTPLSSFPSSTKFPPALTE [SELENOM] | 4.2
CPVPARQKEQCQPHQDRWGFESALIWVCLGAPA [SLC37A3] | 5.61
YVGRSPRPLPSSGDNQQ [CPNE9] | 0.56
RCTKDLLF [GNA13] | 1.38
WVPSEVFIPACVI [VPS13B] | 13.3
LLLLLLLL [Leu08] | 6.62
SDPTSPSAFHWLCHGLYKQIIFPLFKIKSPNENLGM [PRSS37] | 5.12
WRPGRRGPSSGG [Degron KLHDC2] | 10.7
WPSLPPKPRACLSAQLEGPRLQGVLPQSRCFLCIRDPLPSHPVSCLHRWIIFEPPCVDHFEPPGLAQFILIKVFLGGILGT [PARVG] | 9.47
YRGPCRHHPPPSPCPQPVCPVPCPPQAWWWQWRRLRRLKRLTGRGAFCLAHCPDDPPAPSRLQQQSPRRTGWTEEKEVDCCTH [SOX10] | 3.52
QCLWPSILISLMRILLALLSLVGICQAQCFNLKLILCFRCQSRYQQPFDPTTALYILVEDFHPCAWKRCSWYIVKK [TCEAL3] | 10.4
WPSSLPPKPTTQC [KPNA7] | 0.282
QIRI [TADA1] | 0.507
SSSS [Ser04] | 0.471
QKGRAQQCK [IRX2] | 1.1
QTFCSYRLKYLLPIRFFCDMCLPAVN [CCDC59] | 6.05
PPPPPP [Pro06] | 0.323
REAGLPVLLPQGPLWLFTNKDPFVK [BCL7C] | 6.88
LFE [OR12D2] | 0.755
KELFQFIE [FOXJ3] | 0.495
